In patent publication US20190300616A1 (UNIVERSITY OF CHICAGO, published 2019):

T1: recombinant human IL13Rα1hFc chimera (human, UniProt P78552 27-343, limits assumed)
T1 construct: Bought from R&D Systems; also called rhIL13Rα1; hrIL13Rα1; not shown: human Fc (hFc) of the purchased chimera
T1 sequence (looked up): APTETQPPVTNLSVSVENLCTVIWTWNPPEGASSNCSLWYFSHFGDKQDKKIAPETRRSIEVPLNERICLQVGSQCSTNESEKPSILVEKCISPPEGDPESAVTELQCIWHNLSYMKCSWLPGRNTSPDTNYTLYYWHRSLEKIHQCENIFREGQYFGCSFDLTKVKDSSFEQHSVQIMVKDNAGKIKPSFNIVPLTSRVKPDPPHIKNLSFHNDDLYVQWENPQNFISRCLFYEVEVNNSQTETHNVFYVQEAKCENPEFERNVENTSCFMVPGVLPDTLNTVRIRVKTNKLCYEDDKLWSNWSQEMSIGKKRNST

T2: recombinant mouse IL13Rα2hFc chimera (mouse, UniProt O88786 22-334, limits assumed)
T2 construct: Bought from R&D Systems; also called mouse rIL13Rα2; mouse recombinant IL13Rα2; not shown: human Fc (hFc) of the purchased chimera
T2 sequence (looked up): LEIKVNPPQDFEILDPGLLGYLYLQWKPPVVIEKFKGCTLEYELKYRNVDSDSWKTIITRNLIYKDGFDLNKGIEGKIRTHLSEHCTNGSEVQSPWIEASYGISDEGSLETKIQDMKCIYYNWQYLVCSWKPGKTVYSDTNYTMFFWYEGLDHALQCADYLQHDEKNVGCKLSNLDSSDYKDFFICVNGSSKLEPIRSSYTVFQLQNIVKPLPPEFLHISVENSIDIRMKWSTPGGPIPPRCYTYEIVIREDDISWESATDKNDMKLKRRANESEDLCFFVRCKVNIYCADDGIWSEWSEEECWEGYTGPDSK


Key:
[1] = target: T3, *41BB.z; experiment: flow cytometry of transduced T cells stained with IL13Rα2Fc and secondary antibody, axis labelled CAR
T3 construct: also called M47 IL13Ra2 - SH - TM* (CD8a) - 41BB - ζ-chain CAR on T cells

[2] = target: T4, CD28.OX40.z; experiment: as above
T4 construct: also called M47 IL13Ra2 - SH - TM - CD28 - OX40 - ζ-chain CAR on T cells

[3] = target: T1, recombinant human IL13Rα1hFc chimera; experiment: plate-bound ELISA on IL13Rα1hFc
[4] = target: T2, recombinant mouse IL13Rα2hFc chimera; experiment: plate-bound ELISA on mouse rIL13Rα2hFc

| Binder | binding result [1] | binding result [2] | binding result [3] | binding result [4] |
| --- | --- | --- | --- | --- |
| recombinant human IL13Rα2hFc chimera (Fc fusion, UniProt Q14627 27-343, looked up, Bought from R&D Systems; also called rhIL13Rα2hFc; rhIL13Rα2; not shown: human Fc (hFc) of the purchased chimera) DTEIKVNPPQDFEIVDPGYLGYLYLQWQPPLSLDHFKECTVEYELKYRNIGSETWKTIITKNLHYKDGFDLNKGIEAKIHTLLPWQCTNGSEVQSSWAETTYWISPQGIPETKVQDMDCVYYNWQYLLCSWKPGIGVLLDTNYNLFYWYEGLDHALQCVDYIKADGQNIGCRFPYLEASDYKDFYICVNGSSENKPIRSSYFTFQLQNIVKPLPPVYLTFTRESSCEIKLKWSIPLGPIPARCFDYEIEIREDDTTLVTATVENETYTLKTTNETRQLCFVVRSKVNIYCSDDGIWSEWSDKQCWEGEDLSKKTLLR | binds | binds | – | – |
| IL13Rα2 (clone 47) mAb (antibody, V domains shown, Mouse hybridoma antibody; mIgG1 was used as isotype control; also called mAb47; m47) VH: QVQLQQPGAELVRPGASVKLSCKASGYTFSNYLMNWVKQRPEQDLDWIGRIDPYDGDIDYNQNFKDKAILTVDKSSSTAYMQLSSLTSEDSAVYYCARGYGTAYGVDYWGQGTSVTVSS VL: not shown | – | – | no binding (tested: 4 µg/ml) | no binding |
